B1: F-BAR and double SH3 domains protein 1, residues 467 to 528; numbered along this chain, Q86WN1 (parent)
chain: RALPCPAHVVFRYQAGREDELTITEGEWLEVIEEGDADEWVKARNQHGEVGFVPERYLNFPD

Variants of: B1
Experiment: abundance fitness (aPCA) (normalised: wild type 0, dead -1); higher = more abundant; growth selection in yeast, the domain comes from the species named
Settings: Homo sapiens

Abundance fitness of substitutions, site by site:
E27: W -0.911 | F -0.795 | L -0.961 | P -0.811 | A -0.711 | C -0.699 | R -0.762 | T -0.482 | D -0.047 | Y -0.825 | Q -0.285 | V -0.81 | K -0.369 | M -0.653 | I -0.468 | S -1.01
W28: F 0.134 | I 0.026 | D -0.046 | V 0.107 | S -0.014 | K -0.004 | Q 0.026 | R 0.039 | T -0.053 | H 0.01 | M -0.024 | E -0.081 | G -0.217 | P -0.113
E20: R -0.35 | P -1.01 | I -0.746 | K -0.809 | G -0.179 | M -0.475 | D -0.306 | C -0.103 | F -0.284 | V -0.626 | W -0.934 | A -0.205 | Y -0.548 | N -0.39 | T -0.286 | S -0.385 | H -0.138 | L -0.769
L29: S -0.491 | W -1.01 | T -0.782 | H -0.6 | F -1.03 | A -0.7 | K -1.06 | P -0.688 | I -0.004 | N -0.577 | G -0.975 | D -0.642 | R -0.728 | C -0.819 | V 0.102 | M -0.508
E33: T -0.305 | H -0.193 | S 0.063 | I -0.785 | Y -0.56 | G 0.071 | K -0.344 | M -0.266 | V -0.587 | W -0.629 | C -0.05 | N -0.183 | D -0.156 | Q 0.051 | F -0.725 | A -0.048
E25: V -0.154 | L -0.298 | A -0.129 | G -0.281 | M -0.297 | W -0.373 | T 0.038 | F -0.37 | Q -0.266 | D -0.014 | C -0.325 | H -0.176 | P -0.069 | K 0.139 | I -0.348 | Y 0.189 | S 0.104 | R -0.328
G26: V -0.942 | P -0.776 | R -0.558 | F -0.871 | D -0.047 | N -0.195 | A -0.501 | W -0.474 | L -0.741 | T -0.871 | Q -0.34 | H -0.389 | Y -0.564 | M -0.701
E34: A 0.017 | V -0.004 | I -0.165 | D -0.409 | N -0.016 | R -0.044 | H -0.071 | W -0.074 | M -0.085 | Y -0.053 | F 0.127 | T -0.048 | P -0.112 | G -0.17 | C 0.008 | Q -0.026 | L -0.028 | S -0.101
T24: L -0.081 | P -0.879 | G -0.231 | K 0.042 | S -0.083 | I -0.063 | E 0.105 | M -0.02 | H 0.036 | A -0.117 | D 0.087 | Q 0.051 | F -0.247 | N -0.212 | Y -0.153 | R -0.037 | V -0.041 | W -0.25
D36: P 0.13 | Q 0.073 | E 0.032 | K 0.112 | S -0.045 | F 0.005 | H 0.033 | A -0.165 | T -0.042 | R -0.016 | C -0.182 | W 0.006 | L -0.01 | Y -0.171 | G -0.049
L21: F -0.588 | Y -1 | T -1.21 | D -0.851 | G -0.87 | W -0.648 | M -0.198 | R -0.99 | N -0.925 | Q -0.927 | P -0.947 | V -0.456 | H -0.701 | C -0.951 | S -0.517 | E -0.751 | K -0.989 | I -0.49
I23: M -0.269 | W -0.572 | N -1.18 | G -0.588 | Y -0.958 | C -0.228 | F -0.791 | S -0.719 | K -0.718 | R -0.751 | Q -0.936 | T -0.227 | D -0.739 | E -0.833 | V -0.014 | A -0.705
D38: E 0.101 | F -0.127 | H -0.002 | C -0.047 | G 0.023 | A 0.057
D19: L -0.086 | R -0.048 | C 0.087 | M -0.12 | T 0.051 | H -0.013 | Y -0.04 | P -0.396 | F -0.006 | G 0.159 | V 0.103 | Q 0.034 | K -0.05 | I -0.095 | N -0.028 | W -0.426 | A 0.092 | S 0.044
G35: M -0.202 | L -0.318 | S -0.07 | E -0.407 | H -0.409 | P -0.371 | N -0.276 | Q -0.379 | C -0.179 | T 0.063 | K -0.126 | I -0.232 | R -0.072 | F -0.172 | A -0.045 | Y -0.223 | V -0.005 | D -0.211 | W -0.332
I32: K -0.948 | C -0.557 | D -0.73 | W -0.276 | F 0.018 | A -0.84 | Q -0.307 | T -0.256 | P -0.726 | Y -0.063 | G -0.674 | V -0.07 | M -0.162 | E -0.487 | L -0.059 | S -0.863
A37: K 0.14 | V 0.052 | P -0.107 | R 0.141 | M 0.018 | D -0.048 | T 0.014 | H -0.005 | W -0.044 | G -0.05 | I -0.026 | C 0.118 | F -0.023 | Q 0.071
V31: P -0.969 | K -0.797 | S -0.683 | N -0.947 | G -0.888 | W -0.837 | Y -0.431 | R -0.743 | D -0.992 | Q -1.03 | I -0.028 | L -0.454 | H -0.709 | M -0.501 | T -0.778 | A -0.465 | F -0.991
E30: V -0.202 | Q -0.02 | T -0.055 | D -0.177 | G -0.801 | I -0.353 | W -0.185 | S -0.125 | K -0.289 | L -0.277 | C -0.307 | R -0.474 | H -0.218 | Y -0.238 | P -0.753 | N -0.208
T22: Q -0.581 | N 0.09 | F -0.742 | I -0.847 | M -0.652 | E -0.5 | Y -0.844 | C -0.265 | L -0.778 | A -0.2 | P -0.704 | K -0.686 | S 0.069 | D -0.117 | V -0.898 | H -0.494
E18: K -0.238 | S -0.127 | I -0.389 | Y -0.233 | L -0.23 | M -0.245 | R -0.134 | P -0.062 | V -0.134 | H -0.531 | G -0.072 | F -0.28 | Q 0.01 | N -0.086 | T -0.013

From the Human Domainome abundance scans (Beltran et al. 2025)
